According to publication PMC9482650, “Quantitative fragmentomics allow affinity mapping of interactomes” (Nature Communications, 2022):
Where a chain is given by its changes, count along the chain named.

T1: APBA1_2, Q02410
T1 sequence (Q02410 742-832, limits assumed, looked up): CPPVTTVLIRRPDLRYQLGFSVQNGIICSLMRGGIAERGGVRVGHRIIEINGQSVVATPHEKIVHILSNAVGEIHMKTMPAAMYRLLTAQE

T2: APBA2_2, Q99767
T2 sequence (Q99767 654-744, limits assumed, looked up): T1 sequence (Q02410 742-832, limits assumed, looked up) with R10K, R15K, P59A, H65Q, I66A, A70S, Y84F, A89G

T3: APBA3_1, O96018
T3 sequence (O96018 389-490, limits assumed, looked up): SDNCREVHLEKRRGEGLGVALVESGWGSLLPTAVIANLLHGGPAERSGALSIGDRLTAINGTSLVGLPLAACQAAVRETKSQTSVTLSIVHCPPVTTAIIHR

T4: ARHGAP21, Q5T5U3
T4 sequence (Q5T5U3 45-169, limits assumed, looked up): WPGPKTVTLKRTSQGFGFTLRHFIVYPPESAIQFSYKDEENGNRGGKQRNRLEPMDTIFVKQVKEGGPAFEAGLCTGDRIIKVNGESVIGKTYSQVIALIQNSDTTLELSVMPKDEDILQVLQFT

T5: FRMPD1, Q5SYB0
T5 sequence (Q5SYB0 52-145, limits assumed, looked up): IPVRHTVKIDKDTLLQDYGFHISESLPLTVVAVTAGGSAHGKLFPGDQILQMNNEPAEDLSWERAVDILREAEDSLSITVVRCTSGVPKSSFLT

T6: HTRA4, P83105
T6 sequence (P83105 378-476, limits assumed, looked up): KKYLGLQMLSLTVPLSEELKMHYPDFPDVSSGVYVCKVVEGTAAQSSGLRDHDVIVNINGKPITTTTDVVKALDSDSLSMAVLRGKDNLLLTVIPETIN

T7: LIN7B, Q9HAP6
T7 sequence (Q9HAP6 88-185, limits assumed, looked up): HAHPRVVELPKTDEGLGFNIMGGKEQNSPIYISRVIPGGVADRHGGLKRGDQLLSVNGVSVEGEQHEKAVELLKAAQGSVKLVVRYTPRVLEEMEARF

T8: MPDZ_10, O75970
T8 sequence (O75970 1624-1722, limits assumed, looked up): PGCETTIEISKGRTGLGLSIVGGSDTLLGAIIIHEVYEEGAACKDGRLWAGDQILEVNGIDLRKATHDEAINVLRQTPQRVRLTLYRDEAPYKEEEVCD

T9: NHERF3_4, Q5T2W1
T9 sequence (Q5T2W1 373-468, limits assumed, looked up): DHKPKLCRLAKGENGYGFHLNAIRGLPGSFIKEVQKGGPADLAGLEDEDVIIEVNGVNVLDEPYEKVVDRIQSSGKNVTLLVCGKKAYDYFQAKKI

T10: PDZD7_3, Q9H5P4
T10 sequence (Q9H5P4 857-944, limits assumed, looked up): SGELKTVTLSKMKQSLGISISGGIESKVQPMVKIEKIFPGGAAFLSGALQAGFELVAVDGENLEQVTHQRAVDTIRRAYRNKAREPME

T11: PTPN13_1, Q12923
T11 sequence (Q12923 1088-1188, limits assumed, looked up): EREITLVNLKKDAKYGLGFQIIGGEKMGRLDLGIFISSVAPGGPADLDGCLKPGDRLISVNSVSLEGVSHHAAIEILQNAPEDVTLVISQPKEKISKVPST

T12: SIPA1L2, Q9P2F8
T12 sequence (Q9P2F8 945-1036, limits assumed, looked up): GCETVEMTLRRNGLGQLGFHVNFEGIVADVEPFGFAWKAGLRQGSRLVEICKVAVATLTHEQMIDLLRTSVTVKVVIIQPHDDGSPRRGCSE

T13: SYNJ2BP, P57105
T13 sequence (P57105 8-110, limits assumed, looked up): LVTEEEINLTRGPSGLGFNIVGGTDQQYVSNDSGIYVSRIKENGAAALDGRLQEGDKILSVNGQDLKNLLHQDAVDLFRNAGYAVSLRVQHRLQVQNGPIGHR


How the values were obtained:
Assay in all cases: holdup assay
Set-up in all cases: key: below the threshold = too weak to quantify, mostly under pKd 3.1 to 4
Conditions in all cases: plain residues with an end cap or a label only (N-terminal biotin on a linker: ado-ado)
APBA1_2, Q02410 = target: T1, APBA1_2, Q02410
APBA2_2, Q99767 = target: T2, APBA2_2, Q99767
APBA3_1, O96018 = target: T3, APBA3_1, O96018
ARHGAP21, Q5T5U3 = target: T4, ARHGAP21, Q5T5U3
DLG1_1, Q12959 = target: DLG1_1, Q12959
FRMPD1, Q5SYB0 = target: T5, FRMPD1, Q5SYB0
GIPC2, Q8TF65 = target: GIPC2, Q8TF65
GRASP, Q7Z6J2 = target: GRASP, Q7Z6J2
GRIP2_3, Q9C0E4 = target: GRIP2_3, Q9C0E4
GRIP2_7, Q9C0E4 = target: GRIP2_7, Q9C0E4
HTRA4, P83105 = target: T6, HTRA4, P83105
Inadl_2, Q8NI35 = target: Inadl_2, Q8NI35
LIN7B, Q9HAP6 = target: T7, LIN7B, Q9HAP6
MAGI2_4, Q86UL8 = target: MAGI2_4, Q86UL8
MAGI3_2, Q5TCQ9 = target: MAGI3_2, Q5TCQ9
MAST2, Q6P0Q8 = target: MAST2, Q6P0Q8
MPDZ_10, O75970 = target: T8, MPDZ_10, O75970
NHERF3_4, Q5T2W1 = target: T9, NHERF3_4, Q5T2W1
PDLIM1, O00151 = target: PDLIM1, O00151
PDZD7_3, Q9H5P4 = target: T10, PDZD7_3, Q9H5P4
PTPN13_1, Q12923 = target: T11, PTPN13_1, Q12923
SIPA1L2, Q9P2F8 = target: T12, SIPA1L2, Q9P2F8
SNX27, Q96L92 = target: SNX27, Q96L92
SYNJ2BP, P57105 = target: T13, SYNJ2BP, P57105
TJP2_1, Q9UDY2 = target: TJP2_1, Q9UDY2
TJP2_1, Q9UDY2, sequence (Q9UDY2 24-128): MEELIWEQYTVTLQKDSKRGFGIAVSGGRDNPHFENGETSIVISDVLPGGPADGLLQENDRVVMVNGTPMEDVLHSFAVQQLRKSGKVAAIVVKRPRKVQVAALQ

Inadl_2, Q8NI35, sequence (Q8NI35 238-335): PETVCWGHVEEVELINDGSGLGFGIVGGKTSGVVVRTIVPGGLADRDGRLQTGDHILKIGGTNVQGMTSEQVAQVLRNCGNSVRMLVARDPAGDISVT
MAGI2_4, Q86UL8, sequence (Q86UL8 772-865): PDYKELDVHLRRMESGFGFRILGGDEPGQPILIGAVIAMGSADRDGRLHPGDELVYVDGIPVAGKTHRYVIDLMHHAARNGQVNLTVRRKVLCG
PDLIM1, O00151, sequence (O00151 1-87): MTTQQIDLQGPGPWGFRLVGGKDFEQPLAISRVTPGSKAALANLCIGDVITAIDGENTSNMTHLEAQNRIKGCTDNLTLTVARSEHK
GRIP2_3, Q9C0E4, sequence (Q9C0E4 238-339): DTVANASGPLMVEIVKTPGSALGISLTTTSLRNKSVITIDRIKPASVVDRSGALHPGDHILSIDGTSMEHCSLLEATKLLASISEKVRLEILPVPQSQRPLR
GRIP2_7, Q9C0E4, sequence (Q9C0E4 934-1023): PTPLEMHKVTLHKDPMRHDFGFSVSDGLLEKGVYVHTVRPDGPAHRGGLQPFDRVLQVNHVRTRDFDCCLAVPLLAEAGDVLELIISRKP
GRASP, Q7Z6J2, sequence (Q7Z6J2 96-193): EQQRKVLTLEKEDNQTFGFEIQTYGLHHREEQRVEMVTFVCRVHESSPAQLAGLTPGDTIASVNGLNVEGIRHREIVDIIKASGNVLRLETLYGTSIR
MAGI3_2, Q5TCQ9, sequence (Q5TCQ9 398-503): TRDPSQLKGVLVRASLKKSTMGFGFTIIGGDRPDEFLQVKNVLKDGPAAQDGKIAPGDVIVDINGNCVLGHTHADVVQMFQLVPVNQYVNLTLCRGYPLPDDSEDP
GIPC2, Q8TF65, sequence (Q8TF65 112-203): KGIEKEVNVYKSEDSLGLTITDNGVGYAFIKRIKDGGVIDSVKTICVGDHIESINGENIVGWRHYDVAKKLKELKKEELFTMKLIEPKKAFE
MAST2, Q6P0Q8, sequence (Q6P0Q8 1099-1202): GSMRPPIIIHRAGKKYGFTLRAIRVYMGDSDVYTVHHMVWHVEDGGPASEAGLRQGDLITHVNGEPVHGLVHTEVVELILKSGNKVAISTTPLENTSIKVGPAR

Binder | pKd (APBA1_2, Q02410) | pKd (APBA2_2, Q99767) | pKd (APBA3_1, O96018) | pKd (ARHGAP21, Q5T5U3) | pKd (DLG1_1, Q12959) | pKd (FRMPD1, Q5SYB0) | pKd (GIPC2, Q8TF65) | pKd (GRASP, Q7Z6J2) | pKd (GRIP2_3, Q9C0E4) | pKd (GRIP2_7, Q9C0E4) | pKd (HTRA4, P83105) | pKd (Inadl_2, Q8NI35) | pKd (LIN7B, Q9HAP6) | pKd (MAGI2_4, Q86UL8) | pKd (MAGI3_2, Q5TCQ9) | pKd (MAST2, Q6P0Q8) | pKd (MPDZ_10, O75970) | pKd (NHERF3_4, Q5T2W1) | pKd (PDLIM1, O00151) | pKd (PDZD7_3, Q9H5P4) | further results
KIEDVEITLV [FCHSD2, O94868] | 4.07 | 3.51 | below the threshold | 4.01 | 3.79 | below the threshold | below the threshold | 5.5 | below the threshold | below the threshold | 4.54 | 4.3 | below the threshold | 4.07 | 4.05 | 5.63 | 3.49 | below the threshold | below the threshold | 5.46 | pKd (PTPN13_1, Q12923): below the threshold; pKd (SIPA1L2, Q9P2F8): below the threshold; pKd (SNX27, Q96L92): 5.01; pKd (SYNJ2BP, P57105): 3.82; pKd (TJP2_1, Q9UDY2): below the threshold
STYCDYTIEI [FAM71C, Q8NEG0] | below the threshold | below the threshold | below the threshold | 4.13 | below the threshold | below the threshold | 3.49 | 3.69 | below the threshold | below the threshold | 4.96 | 3.51 | below the threshold | below the threshold | below the threshold | 5.12 | below the threshold | below the threshold | below the threshold | 3.55 | pKd (PTPN13_1, Q12923): below the threshold; pKd (SIPA1L2, Q9P2F8): below the threshold; pKd (SNX27, Q96L92): 3.56; pKd (SYNJ2BP, P57105): below the threshold; pKd (TJP2_1, Q9UDY2): below the threshold
RSPVATATSC [DUSP5, Q16690] | below the threshold | below the threshold | below the threshold | below the threshold | below the threshold | below the threshold | 3.6 | below the threshold | below the threshold | below the threshold | below the threshold | below the threshold | 3.68 | below the threshold | below the threshold | 4.22 | below the threshold | below the threshold | below the threshold | 3.72 | pKd (PTPN13_1, Q12923): below the threshold; pKd (SIPA1L2, Q9P2F8): below the threshold; pKd (SNX27, Q96L92): below the threshold; pKd (SYNJ2BP, P57105): below the threshold; pKd (TJP2_1, Q9UDY2): below the threshold

Continued, in another order:

pKd (APBA1_2, Q02410) | pKd (APBA2_2, Q99767) | pKd (APBA3_1, O96018) | pKd (ARHGAP21, Q5T5U3) | pKd (DLG1_1, Q12959) | pKd (FRMPD1, Q5SYB0) | pKd (GIPC2, Q8TF65) | pKd (GRASP, Q7Z6J2) | pKd (GRIP2_3, Q9C0E4) | pKd (GRIP2_7, Q9C0E4) | pKd (HTRA4, P83105) | pKd (Inadl_2, Q8NI35) | pKd (LIN7B, Q9HAP6) | pKd (MAGI2_4, Q86UL8) | pKd (MAGI3_2, Q5TCQ9) | pKd (MAST2, Q6P0Q8) | pKd (MPDZ_10, O75970) | pKd (NHERF3_4, Q5T2W1) | pKd (PDLIM1, O00151) | pKd (PDZD7_3, Q9H5P4) | Binder | further results
4.24 | below the threshold | below the threshold | below the threshold | below the threshold | below the threshold | below the threshold | 3.68 | below the threshold | 3.69 | 4.38 | below the threshold | 3.81 | below the threshold | below the threshold | below the threshold | below the threshold | 3.51 | below the threshold | below the threshold | MQILSKPEFI [NPSR1, Q6W5P4] | pKd (PTPN13_1, Q12923): below the threshold; pKd (SIPA1L2, Q9P2F8): below the threshold; pKd (SNX27, Q96L92): below the threshold; pKd (SYNJ2BP, P57105): below the threshold; pKd (TJP2_1, Q9UDY2): below the threshold
5.02 | below the threshold | below the threshold | 4.15 | 4.25 | below the threshold | 4.2 | 4.23 | below the threshold | 4.09 | 3.59 | 4.17 | 3.96 | 4.07 | 4.38 | 5.12 | below the threshold | below the threshold | 4.22 | 4.32 | PLPPEEESWV [GAS2L2, Q8NHY3] | pKd (PTPN13_1, Q12923): below the threshold; pKd (SIPA1L2, Q9P2F8): below the threshold; pKd (SNX27, Q96L92): 5.58; pKd (SYNJ2BP, P57105): 4.98; pKd (TJP2_1, Q9UDY2): 4.4
below the threshold | below the threshold | below the threshold | 3.97 | 3.96 | below the threshold | 4.1 | below the threshold | below the threshold | below the threshold | below the threshold | below the threshold | 3.77 | below the threshold | below the threshold | 4.78 | below the threshold | below the threshold | below the threshold | below the threshold | KEKASTETEC [TRPM1, Q7Z4N2] | pKd (PTPN13_1, Q12923): below the threshold; pKd (SIPA1L2, Q9P2F8): below the threshold; pKd (SNX27, Q96L92): 4.53; pKd (SYNJ2BP, P57105): 3.83; pKd (TJP2_1, Q9UDY2): below the threshold
